How the values were obtained:
[1] = target: T1, wild-type FlaI, Sulfolobus acidocaldarius (Sulfolobus acidocaldarius), Q4J9L0; experiment: crystal structure; settings: remark: other sources report otherwise
T1 chain: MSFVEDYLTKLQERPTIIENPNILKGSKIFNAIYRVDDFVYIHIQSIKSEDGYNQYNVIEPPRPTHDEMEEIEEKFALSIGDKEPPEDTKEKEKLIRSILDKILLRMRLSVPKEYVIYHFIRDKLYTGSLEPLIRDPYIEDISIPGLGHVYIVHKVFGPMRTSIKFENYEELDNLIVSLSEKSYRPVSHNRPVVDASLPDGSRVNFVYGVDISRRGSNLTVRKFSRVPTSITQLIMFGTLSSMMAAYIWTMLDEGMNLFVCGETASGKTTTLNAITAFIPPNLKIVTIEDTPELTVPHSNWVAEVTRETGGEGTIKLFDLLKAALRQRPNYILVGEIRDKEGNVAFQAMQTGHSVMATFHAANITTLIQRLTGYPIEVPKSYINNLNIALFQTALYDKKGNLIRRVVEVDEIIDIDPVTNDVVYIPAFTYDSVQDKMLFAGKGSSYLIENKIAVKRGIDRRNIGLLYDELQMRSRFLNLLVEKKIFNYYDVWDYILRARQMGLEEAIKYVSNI

crystal structure = target: the molecule itself; experiment: crystal structure
SEC = target: the molecule itself; experiment: SEC

B1: wild-type FlaI, Sulfolobus acidocaldarius, Q4J9L0 1-513 (enzyme)
chain: MSFVEDYLTKLQERPTIIENPNILKGSKIFNAIYRVDDFVYIHIQSIKSEDGYNQYNVIEPPRPTHDEMEEIEEKFALSIGDKEPPEDTKEKEKLIRSILDKILLRMRLSVPKEYVIYHFIRDKLYTGSLEPLIRDPYIEDISIPGLGHVYIVHKVFGPMRTSIKFENYEELDNLIVSLSEKSYRPVSHNRPVVDASLPDGSRVNFVYGVDISRRGSNLTVRKFSRVPTSITQLIMFGTLSSMMAAYIWTMLDEGMNLFVCGETASGKTTTLNAITAFIPPNLKIVTIEDTPELTVPHSNWVAEVTRETGGEGTIKLFDLLKAALRQRPNYILVGEIRDKEGNVAFQAMQTGHSVMATFHAANITTLIQRLTGYPIEVPKSYINNLNIALFQTALYDKKGNLIRRVVEVDEIIDIDPVTNDVVYIPAFTYDSVQDKMLFAGKGSSYLIENKIAVKRGIDRRNIGLLYDELQMRSRFLNLLVEKKIFNYYDVWDYILRARQMGLEEAIKYVSNI
- stoichiometry N [1]: 6

B2: FlaI Walker B mutant (FlaI^E336A), full-length, Sulfolobus acidocaldarius (enzyme, UniProt Q4J9L0 1-513, looked up)
chain: MSFVEDYLTKLQERPTIIENPNILKGSKIFNAIYRVDDFVYIHIQSIKSEDGYNQYNVIEPPRPTHDEMEEIEEKFALSIGDKEPPEDTKEKEKLIRSILDKILLRMRLSVPKEYVIYHFIRDKLYTGSLEPLIRDPYIEDISIPGLGHVYIVHKVFGPMRTSIKFENYEELDNLIVSLSEKSYRPVSHNRPVVDASLPDGSRVNFVYGVDISRRGSNLTVRKFSRVPTSITQLIMFGTLSSMMAAYIWTMLDEGMNLFVCGETASGKTTTLNAITAFIPPNLKIVTIEDTPELTVPHSNWVAEVTRETGGEGTIKLFDLLKAALRQRPNYILVGAIRDKEGNVAFQAMQTGHSVMATFHAANITTLIQRLTGYPIEVPKSYINNLNIALFQTALYDKKGNLIRRVVEVDEIIDIDPVTNDVVYIPAFTYDSVQDKMLFAGKGSSYLIENKIAVKRGIDRRNIGLLYDELQMRSRFLNLLVEKKIFNYYDVWDYILRARQMGLEEAIKYVSNI
- stoichiometry N (crystal structure): 6

B3: FlaI^N190E/E336A interface mutant in the Walker B background (enzyme, Sulfolobus acidocaldarius, UniProt Q4J9L0 1-513, looked up)
chain: MSFVEDYLTKLQERPTIIENPNILKGSKIFNAIYRVDDFVYIHIQSIKSEDGYNQYNVIEPPRPTHDEMEEIEEKFALSIGDKEPPEDTKEKEKLIRSILDKILLRMRLSVPKEYVIYHFIRDKLYTGSLEPLIRDPYIEDISIPGLGHVYIVHKVFGPMRTSIKFENYEELDNLIVSLSEKSYRPVSHERPVVDASLPDGSRVNFVYGVDISRRGSNLTVRKFSRVPTSITQLIMFGTLSSMMAAYIWTMLDEGMNLFVCGETASGKTTTLNAITAFIPPNLKIVTIEDTPELTVPHSNWVAEVTRETGGEGTIKLFDLLKAALRQRPNYILVGAIRDKEGNVAFQAMQTGHSVMATFHAANITTLIQRLTGYPIEVPKSYINNLNIALFQTALYDKKGNLIRRVVEVDEIIDIDPVTNDVVYIPAFTYDSVQDKMLFAGKGSSYLIENKIAVKRGIDRRNIGLLYDELQMRSRFLNLLVEKKIFNYYDVWDYILRARQMGLEEAIKYVSNI
- binding result (SEC): binds

B4: FlaI^R307K/E336A interface mutant in the Walker B background (enzyme, Sulfolobus acidocaldarius, UniProt Q4J9L0 1-513, looked up)
chain: MSFVEDYLTKLQERPTIIENPNILKGSKIFNAIYRVDDFVYIHIQSIKSEDGYNQYNVIEPPRPTHDEMEEIEEKFALSIGDKEPPEDTKEKEKLIRSILDKILLRMRLSVPKEYVIYHFIRDKLYTGSLEPLIRDPYIEDISIPGLGHVYIVHKVFGPMRTSIKFENYEELDNLIVSLSEKSYRPVSHNRPVVDASLPDGSRVNFVYGVDISRRGSNLTVRKFSRVPTSITQLIMFGTLSSMMAAYIWTMLDEGMNLFVCGETASGKTTTLNAITAFIPPNLKIVTIEDTPELTVPHSNWVAEVTKETGGEGTIKLFDLLKAALRQRPNYILVGAIRDKEGNVAFQAMQTGHSVMATFHAANITTLIQRLTGYPIEVPKSYINNLNIALFQTALYDKKGNLIRRVVEVDEIIDIDPVTNDVVYIPAFTYDSVQDKMLFAGKGSSYLIENKIAVKRGIDRRNIGLLYDELQMRSRFLNLLVEKKIFNYYDVWDYILRARQMGLEEAIKYVSNI
- binding result (SEC): binds
